The record followed here is publication PMC4808055 (Nature cell biology, 2015).

The assay addresses T1, yeast Twinfilin (Twf1), full-length (1-332) (yeast, UniProt P53250 1-332).
T1 sequence: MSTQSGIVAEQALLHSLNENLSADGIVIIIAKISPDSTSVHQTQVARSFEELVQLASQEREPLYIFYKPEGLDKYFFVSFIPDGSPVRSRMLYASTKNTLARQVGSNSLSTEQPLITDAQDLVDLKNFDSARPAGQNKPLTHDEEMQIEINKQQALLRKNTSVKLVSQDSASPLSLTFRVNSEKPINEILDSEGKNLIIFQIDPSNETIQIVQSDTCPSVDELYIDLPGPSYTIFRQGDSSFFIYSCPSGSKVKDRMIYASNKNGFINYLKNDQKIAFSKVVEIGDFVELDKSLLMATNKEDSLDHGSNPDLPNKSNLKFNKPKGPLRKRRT
Nature of the assay: negative-stain electron microscopy.

B1: N-Srv2 (1-259) (domain or fragment)
chain: MPDSKYTMQGYNLVKLLKRLEEATARLEDVTIYQEGYIQNKLEASKNNKPSDSGADANTTNEPSAENAPEVEQDPKCITAFQSYIGENIDPLVELSGKIDTVVLDALQLLKGGFQSQLTFLRAAVRSRKPDYSSQTFADSLRPINENIIKLGQLKESNRQSKYFAYLSALSEGAPLFSWVAVDTPVSMVTDFKDAAQFWTNRILKEYRESDPNAVEWVKKFLASFDNLKAYIKEYHTTGVSWKKDGMDFADAMAQSTKN
As to B1, the binding result is on record as “binds”.
